# Experimental data: the supplement of paper PMC9170038
# System: K4 kissing-loop RNA reporter
# Assay: apparent KD of K4 kissing-loop reporter; higher = weaker reporter binding
# Settings: Eterna round: R107
# Procedure: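 RNA-MaP round R107: designed RNA switches with theophylline, tryptophan, arginine or FMN aptamers are transcribed on-chip within common flanks. They are titrated with a labelled K4 kissing-loop RNA reporter in RNA-MaP buffer (100 mM Tris pH 7.5, 80 mM KCl, 4 mM MgCl2), without ligand or with the indicated ligand. Median apparent KD per design.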
# [1] = input ligand: theophylline 20 uM
# [2] = input ligand: tryptophan 2.4 mM
# 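Note: bound reporter read as fluorescence of individual clusters on recovered sequencing chips by microscopy, with normalized cluster intensities fitted with a binding model.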
Sequence,apparent KD of K4 kissing-loop reporter (input ligand: FMN 200 uM) [nM],apparent KD of K4 kissing-loop reporter (input ligand: arginine 13.2 mM) [nM],apparent KD of K4 kissing-loop reporter (input ligand: none) [nM],apparent KD of K4 kissing-loop reporter [1] [nM],apparent KD of K4 kissing-loop reporter [2] [nM]
ACUGAGCAUGCGGCCGCCACUUCAGAACGUCGCCCAAAGGGCGACGCCUCCACAGUGAUGUUGUGGAGGACCGGGCAUGUUCAGA [Omei KL Tryp B Exc A v2],152,113,136,111,144
ACUUGAGCACAUAGCACACCAAGCAGUAGGUAGGAUAUCCGGCUUAGGAGAAGGACCAUGCAGUGAUGUUGCAUGCUCCUCCAUG [Zaribies],258,95.8,76,92.3,99.9
AGAAAAGGGACGAUCGUCGAGUUGCCAGAAGGAGCGGUAAUUUUACCAGGUAGGUCGCUGGCCCAGUGAUGUUGGGCUUUUAAGA [Biisinaor],105,96.5,125,133,92.4
AGAAACUUGUAUACAGGGCAUGCCAGAGAUACCAGUCAAAUGGAAGGCCCUUGGCAGCUCAGGCGAGUGAUGUUCGCAGGCUGAC [Exclusion Theophylline A GF 20],132,113,142,145,105
AGAACUGUCUGAGAUACCAGCCAUAGGAGUGAUGUUCCUAGCUCCACAAAGUGGAGCCAUAGCCCUUGGCAGCUCAGACAGUUCA [Omei KL Theo B SS A v7],1040,763,1150,771,823
AGACUACCACACUGUCAAUAGACAGUGAACUAGGAUAUGCUGAUAAGCAGAAGGAGUGAUGUUCCUUGGUAGUCAAUAAAAUAAU [FmnAX 13 U67],308,270,298,330,289
AGACUACCACACUGUCAAUAGACAGUGAAUUAGGAUAUGCUGAUAAGCAGAAGGAGUGAUGUUCCCAGGUAGUCAAUAAAAUAAU [FmnAX 13 U30+C66],169,124,167,202,177
AGACUACCACACUGUCAAUAGACAGUGAGCUAGGAUAUGCUGAUAAGCAGAAGGAGUGAUGUUCCUCGGUAGUCAAUAAAAUAAU [FmnAX 13 G29+C67],373,357,364,503,378
AGACUACCACACUGUCAAUAGACAGUGAGGUAGGAUAUGCUGAAAAGCAGAAGGACCAGUGAUGUUGGUAGGUAGUCAAAAUAAA [FmnAX 11 #SwitchBubble #StaticStem #K4Early],185,112,84.8,128,74.9
AGAGAUAUAUGAGGAUAUGGGUUUGUUAAUGAGUUAGUUUUAGUGUUGUUUGGUUAGUGAUGUUAUUUAGAAGGCGUGAGUGAUG [aatrmullin],94.2,62.3,61.4,78.4,62.2
AGAGUCAGACAAAAGUCUGGCUCAGCCGAAGGAGCGUCCGAAAGGACAGGUAGGUCGCGGUUGCAUGAGUGAUGUUGAUGUUUUU [KL-SSArg-A23],546,372,425,559,500
AGAGUUAUGCGAGGAUAUGCAGUUAGUACUCAAAGAGUACUAACGGCAGAGUGAUGUUCUGUGAAAGCAGAAGGUGCAUAACUCA [Omei KL FMN B SS B v8],195,837,1370,857,923
AGAUUCGACACGGCCGCCACUUCCGGUGGCUGGUGUCAUGGUGCGCGUGAGUGAUGUUUAUGUGGGAGGACCGGGUGUUGAGUCU [whbob_Ex_Tryp_B_w42],616,393,654,559,704
AGCAAAACCAAAGGAUAUUGGCAGUCGAUGUACCAUGUUCCCGUAGCAGGUUGAGUGAUGUUUAAGCAAGAAGGUUGGCGUUUGG [theeternabot_exclusion_KL_FMN_B_12],560,302,436,457,368
AGCAGUGAUGUUGCAUUUAAAAUGACCGAUACCAGUAUCGAUAGAUACCCUUGGCAGCGGAUUUCCGCAACGACUAGGAAACUAG [Ex Theophylline A K4 15],324,377,436,504,327
AGCCAGCGUACAUCACUCUGGCUGCUGGAUACCAGCUCGGAAACGAGCCCUUGGCAGCCAGAACUUGCAGUGAUGUUGCAAGUAA [Design12],460,276,402,458,345
AGCGCCUAAGCCGAUACCAGAAACGCGGUGCGUCGCACGAUUAACUAGGAAAGUGAUGUUUUCCCUUGGCAGCGGGACCUGUGAG [theeternabot_exclusion_KL_Theo_B_11],119,116,134,133,135
AGCGCUGCCUGAGGAUAUAGAAACGAGUGAUGUUCGUGGAUUGAUACCAGUGAUGUUGGCCUAUUUCUAGAAGGCAGGCGAUCGU [Exclusion FMN B GF2],172,97.1,136,88.2,114
AGGAUCCGUCGACAAAAGUCGACAUAAGCCAAGGAUAUGACGAAAGUCAGAAGGUGGUCAUAAGACCAGUGAUGUUGGUGGAUCC [FmnA 13 #SwitchBubble #K4Late],909,279,526,309,457
AGGUACAAAAGUACCGCUAGAUCCACGGAAGGAGCGCGCGAAAGCGCAGGUAGGUCGCCGGGCAGUGAUGUUGCCGGAUCUAGCA [Omei KL Arginine A SS A v7],134,138,126,165,144
AGGUUUUGAUUAGGAUAUGCACUGAGGAGGAGAAUAUAGUGAUGUUAUAUAAGAGGAAUUAGUAGAGUAGAAGGGAUUGAGGUUU [SSFMNB.T],248,167,131,124,196

Sequence,apparent KD of K4 kissing-loop reporter (input ligand: FMN 200 uM) [nM],apparent KD of K4 kissing-loop reporter (input ligand: arginine 13.2 mM) [nM],apparent KD of K4 kissing-loop reporter (input ligand: none) [nM],apparent KD of K4 kissing-loop reporter [1] [nM],apparent KD of K4 kissing-loop reporter [2] [nM]
AGUAAUGAGUGAUGUUCAAGUAGUAAGGAUACCAGUAAUUCAAAAUGCCCUUGGCAGCUUAGCGCUACCAAUAGAUGGGUAGUGG [Theophilline A V3 (+6G)],243,250,286,297,160
AGUACAAUGGCGGCCGCCACUCAAUGGCAGAUCAAAGAUCUGCAUCACUCAGUGAUGUUGAGUGAGAGGACCGGGCCUUUGUACA [Omei KL Tryp B SS B v7],564,517,563,505,157
AGUACAAUUGCGGCCGCCACUCAACGCAGAUCAAAGAUCUGCAUUCACUCAGUGAUGUUGAGUGAGAGGACCGGGCAUUUGUACA [Omei KL Tryp B SS B v2],676,481,548,512,164
AGUGCACUGUCAGGAUAUAUACAGUGAUGUUGUGUAUGUCGGCAAGUCAAAGACUUGCCAUUCUGUGUAGAAGGGACUGUGUACA [#04 K4 FMN B Exclusion],544,203,222,202,223
AGUGUUAGGUUAGAUACCAGCCGUCUGUGGAUAAUCCACAGACCGCCAGUGAUGUUGGCAGGCCCUUGGCAGCUAACAGGACAGA [Riedingeus],239,215,220,153,208
AGUUCUUGCCGAAGGAGCGAGGCAGAGUGAUGUUCUGCAAAGAGGUCGAAAGACCUCCUGCCUCAGGUAGGUCGCGGCAUGAACA [Omei KL Arginine B Exc A v5],814,942,652,509,1260
AUACAGCGAAGCGCUAGUGAUGUUAGCGAAGGAGCGACUCAGGAGUCAGGUAGGUCGCGCUAAACAGGUUACGAGAGUAACCAGU [Arg A Ex t1],142,120,140,137,113
AUAUCUGAUAGCAGUGAUGUUGCUUCAGAUACCAGACGAGAUCAUGUCCCUUGGCAGCUGACACGGCACGUGCUAGGUUAGAUGA [Theo A Ex t2],101,92.6,101,103,101
AUAUUACUAUACGAUACCAGCCCUAACACUAGUGACGCGGUAAUAGUGAUGUUGUAACCCGGCCCUUGGCAGCGUAAUCAUGGAA [theeternabot_sameState_KL_Theo_B_7],529,395,519,524,475
AUCAGUGUCUCACGCUACGACAUAUACGAUACCAGUCACCCUGAUGACCCUUGGCAGCGUCAACGAGUGAUGUUCGGGUUCUAGA [theeternabot_sameState_KL_Theo_A_1],345,241,404,389,309
AUGACUCAAUAGUGAGUGAUGUUCACUGGACGAGGACCGGUACGGCCGCCACUCGAGAGUGGUGGACACUGUGUCACUGAGUCAU [Tryp A Ex t1],180,166,154,194,496
AUGCGCGCGGCGGCCGCCACUCGCAUGAGAGUGAUGUUCUCGCCGUGCCCGCAAGGGUGCGGUGUGAGGACCGGGCCGGGCUGCG [#2 Same State - Tryptophan B Attempt #19 (HarryS)],562,143,194,154,302
AUGCGCGUGCGAUGGAAAUCGCACGCGCAUCGAGGACCGGUACGGCCGCCACUCGCUCGCGCCGAGUGAUGUUCGGCCGGCGAAC [#2 SameState - Tryptophan_A Attempt #3 (HarryS)],180,162,283,329,599
AUGUUGAGCGGAAGGAGCGGCUGAACCAGUGAUGUUGGUUAAUCCAAGUGAUGUUGGAAAAGCCAGGUAGGUCGCCGCUUUAUGU [Same State Arg B GF 2],821,534,902,896,722
AUUAUAAAGGCGGCCGCCACUAGUGAUGUUAGUGACUAUAGUAUUAUCUAUAGAAUAAAAUAAAAUAGGACCGGGCCAAAAUAUU [AstrosExTryB#2],535,411,525,493,464
AUUAUCAAUUUAUUAUAUAACUUUUCAGAAGGAGCGUGGAAGUACACAGGUAGGUCGCUGAAUAUAGGACUAGUGAUGUUAGUUA [JR_Nu_SSArginiA_Sub024],236,221,266,298,248
AUUGCGGCCGUUCUAUCACCAGGCGGAGAUACCAGAUGCCAGCAGAUCCCUUGGCAGCUCUGCACGAGAUCCAGUGAUGUUGGGU [theeternabot_exclusion_KL_Theo_A_9],319,239,320,288,276
AUUUAAUGUAUAGAUUAUAUACAUUAUUCAGAGGAUAUGCAUUGAAGCAGAAGGCUGGGUGUAGUGAUGUUGCAGUUUUAAUUUA [whbob_SS_FMNA__2th173],150,254,152,224,122
AUUUGUUUAUGUGAUACCAGACUAAGCAGUGAUGUUGCUUUUAUUUUUGAAUUUUAAAUAGUCCCUUGGCAGCACUAUGUCUGUA [#05 K4 Theophylline B Same State],96.4,147,135,161,94.2
AUUUUGGUUGAGAGUGAUGUUCCUUGUGUUCGAGGACCGGUACGGCCGCCACUCGGGUAGAAAAUAAAAGAAAUGUUUGAUUUUU [BDazzled - #11 SS Tryptophan A],242,86.1,157,143,215
AUUUUUUACAGAAGGAGCGUGUUAUAAUAAUCAUAUUGCUUAGCGAGUGAUGUUCGCUUUACACAGGUAGGUCGCUGUUUAUUUA [JR_Nu_ExcArginiB_Sub029],167,168,176,180,151
